Assay [1] has as its target human 4-1BB on the surface of HEK293-Hu4-1BB cells (human) (UniProt Q07011). The experiment in a line: cell-based or functional assay.
Assay [2] has the same target. The assay can be described thus: FACS on HEK293 cells highly expressing human 4-1BB.

human 4-1BB on the surface of HEK293-Hu4-1BB cells (human), sequence (Q07011 24-255): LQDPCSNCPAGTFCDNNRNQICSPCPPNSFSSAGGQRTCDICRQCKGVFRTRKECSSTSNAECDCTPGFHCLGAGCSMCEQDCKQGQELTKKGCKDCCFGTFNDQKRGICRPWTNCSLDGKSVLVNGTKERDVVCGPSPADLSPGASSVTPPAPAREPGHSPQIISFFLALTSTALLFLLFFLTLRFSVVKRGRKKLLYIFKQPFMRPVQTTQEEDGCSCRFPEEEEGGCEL

Consider isotype IgG1 antibody, for which, in assay [1], the Emax, 4-1BB/NF-κB luciferase reporter, FcγRIIb cross-linking (relative to antibody-free group) is 1.12 and the Emax, 4-1BB/NF-κB luciferase reporter, no FcγRIIb cross-linking (relative to antibody-free group) was determined as 1.1. The substance further showed a Maximal fluorescence value in assay [2] of 67.

(Values after patent US20250026842A1.)
